{"source": "patent US20040121326A1", "about": "(YEDA RESEARCH AND DEVELOPMENT, published 2004)", "binders": {"B1": {"name": "synthetic refolded mouse EGF-like domain of NRG-4 (residues 4 to 50, SEQ ID NO:2) (ligand)", "peptide": "DHEQPCGPRHRSFCLNGGICYVIPTIPSPFCRCIENYTGARCEEVFL", "modifications": "disulfide (positions not given here); also: three disulfide bonds, pairing not given here", "notes": "Chemically synthesised, folded and fully oxidized (three predicted disulfide bonds); also called Neuregulin-4; the novel synthetic peptide"}}, "key": {"[1]": {"target": "T1, ErbB-2 expressed on transfected cells (32D derivative D2; CHO cells co-transfected with ErbB-4) (UniProt P04626 23-1255, limits assumed)", "T1 construct": "whole, on cells", "test": "in vitro studies with engineered cell lines expressing all four ErbB proteins (FIGS. 3 to 5)", "method": "(§1) The indicated derivative lines of 32D cells were tested for cell proliferation using the [3-(4,5-dimethylthiazol-2-yl)-2,5-diphenyl]tetrazolium bromide (MTT) assay. […] The MTT assay was performed 24 hours later.\n(§2) The indicated derivatives of 32D cells were incubated for various time intervals in the absence of IL-3. […] For control, cells were incubated with medium conditioned by IL-3-producing cells (open triangles), or with no factor (open circles). The extent of cell proliferation was determined daily by using the colorimetric MTT assay. The data presented are the mean±S.D. of 4 determinations."}, "[2]": {"target": "T2, ErbB-3 expressed on transfected cells (32D derivative D3; CHO cells co-transfected with ErbB-4) (UniProt P21860 20-1342, limits assumed)", "T2 construct": "whole, on cells", "T2 sequence (P21860 20-1342 limits assumed)": "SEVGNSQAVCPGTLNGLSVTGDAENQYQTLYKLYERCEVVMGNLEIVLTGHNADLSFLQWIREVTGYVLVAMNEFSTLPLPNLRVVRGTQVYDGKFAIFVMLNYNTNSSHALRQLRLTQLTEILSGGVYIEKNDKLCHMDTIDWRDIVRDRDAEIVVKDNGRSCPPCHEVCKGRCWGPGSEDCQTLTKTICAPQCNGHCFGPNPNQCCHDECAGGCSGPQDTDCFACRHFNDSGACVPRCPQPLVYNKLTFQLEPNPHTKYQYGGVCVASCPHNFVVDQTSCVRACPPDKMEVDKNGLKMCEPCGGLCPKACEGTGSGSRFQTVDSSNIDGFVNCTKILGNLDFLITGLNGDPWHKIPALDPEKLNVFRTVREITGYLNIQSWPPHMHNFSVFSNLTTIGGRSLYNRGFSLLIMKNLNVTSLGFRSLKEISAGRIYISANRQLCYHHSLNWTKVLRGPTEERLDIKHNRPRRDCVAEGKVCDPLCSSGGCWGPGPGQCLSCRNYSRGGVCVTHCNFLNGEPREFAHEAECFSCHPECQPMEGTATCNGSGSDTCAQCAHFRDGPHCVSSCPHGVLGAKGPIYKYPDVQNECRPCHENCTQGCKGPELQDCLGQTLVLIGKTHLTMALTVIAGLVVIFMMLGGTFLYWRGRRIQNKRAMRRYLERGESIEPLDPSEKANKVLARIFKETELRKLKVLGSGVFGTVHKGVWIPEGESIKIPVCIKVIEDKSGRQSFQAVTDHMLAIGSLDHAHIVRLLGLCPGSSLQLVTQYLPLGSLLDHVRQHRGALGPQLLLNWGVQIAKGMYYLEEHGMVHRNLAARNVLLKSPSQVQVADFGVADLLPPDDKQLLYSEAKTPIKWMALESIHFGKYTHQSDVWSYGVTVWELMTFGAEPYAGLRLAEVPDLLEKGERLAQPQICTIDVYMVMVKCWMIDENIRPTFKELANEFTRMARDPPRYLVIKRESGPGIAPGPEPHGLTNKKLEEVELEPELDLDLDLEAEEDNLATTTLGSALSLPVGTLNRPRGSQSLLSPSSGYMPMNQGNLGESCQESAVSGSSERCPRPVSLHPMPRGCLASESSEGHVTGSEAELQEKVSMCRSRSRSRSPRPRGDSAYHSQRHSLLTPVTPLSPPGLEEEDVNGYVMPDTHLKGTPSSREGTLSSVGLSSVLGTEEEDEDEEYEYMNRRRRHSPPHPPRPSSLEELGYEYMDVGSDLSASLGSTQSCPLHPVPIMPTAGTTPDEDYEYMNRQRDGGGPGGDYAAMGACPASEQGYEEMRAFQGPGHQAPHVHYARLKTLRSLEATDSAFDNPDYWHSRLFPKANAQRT", "test": "in vitro studies with engineered cell lines expressing all four ErbB proteins (FIGS. 3 to 5)", "method": "as §1, §2"}, "[3]": {"target": "T3, ErbB-1 expressed on transfected cells (32D derivative D1; CHO cells co-transfected with ErbB-4) (UniProt P00533 25-1210, limits assumed)", "T3 construct": "whole, on cells; also called Epidermal Growth Factor Receptor", "test": "in vitro studies with engineered cell lines expressing all four ErbB proteins (FIGS. 3 to 5)", "method": "as §1, §2"}, "[4]": {"target": "T4, ErbB-4 expressed on transfected cells (CHO cells; 32D derivatives D4 and D24) (UniProt Q15303 26-1308, limits assumed)", "T4 construct": "whole, on cells; also called surface-expressed ErbB-4", "T4 sequence (Q15303 26-1308 limits assumed)": "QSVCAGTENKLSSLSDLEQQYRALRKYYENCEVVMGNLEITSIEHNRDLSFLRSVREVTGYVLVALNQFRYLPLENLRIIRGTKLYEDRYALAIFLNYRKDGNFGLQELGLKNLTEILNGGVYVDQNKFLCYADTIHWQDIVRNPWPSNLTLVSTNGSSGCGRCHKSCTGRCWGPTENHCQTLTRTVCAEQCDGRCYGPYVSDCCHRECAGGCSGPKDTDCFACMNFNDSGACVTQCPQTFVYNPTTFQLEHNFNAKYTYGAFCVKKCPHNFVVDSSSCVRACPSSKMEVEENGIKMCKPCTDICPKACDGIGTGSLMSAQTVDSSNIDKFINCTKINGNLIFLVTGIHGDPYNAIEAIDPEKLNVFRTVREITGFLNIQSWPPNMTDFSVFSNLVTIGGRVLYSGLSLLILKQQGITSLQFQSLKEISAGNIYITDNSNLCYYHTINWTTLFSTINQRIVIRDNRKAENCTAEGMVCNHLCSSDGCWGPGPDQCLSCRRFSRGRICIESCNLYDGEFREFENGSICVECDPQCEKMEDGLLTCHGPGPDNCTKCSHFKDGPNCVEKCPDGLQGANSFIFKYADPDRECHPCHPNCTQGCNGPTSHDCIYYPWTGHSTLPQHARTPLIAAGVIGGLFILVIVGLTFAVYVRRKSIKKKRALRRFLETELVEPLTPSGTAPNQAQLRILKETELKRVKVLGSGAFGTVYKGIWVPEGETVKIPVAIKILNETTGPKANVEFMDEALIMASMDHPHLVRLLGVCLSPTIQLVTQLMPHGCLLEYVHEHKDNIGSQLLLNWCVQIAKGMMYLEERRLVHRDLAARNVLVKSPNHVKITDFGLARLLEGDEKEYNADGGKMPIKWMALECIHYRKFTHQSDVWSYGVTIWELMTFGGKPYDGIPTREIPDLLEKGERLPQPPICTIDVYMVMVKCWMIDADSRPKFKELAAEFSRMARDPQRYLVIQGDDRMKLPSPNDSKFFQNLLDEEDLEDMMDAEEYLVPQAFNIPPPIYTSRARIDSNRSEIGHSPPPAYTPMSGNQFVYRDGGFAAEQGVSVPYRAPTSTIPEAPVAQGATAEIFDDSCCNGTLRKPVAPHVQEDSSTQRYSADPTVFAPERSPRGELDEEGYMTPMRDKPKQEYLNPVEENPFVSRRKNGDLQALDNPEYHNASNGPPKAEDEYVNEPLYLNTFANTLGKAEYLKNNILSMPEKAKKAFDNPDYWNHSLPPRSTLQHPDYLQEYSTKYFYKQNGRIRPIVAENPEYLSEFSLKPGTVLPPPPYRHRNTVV", "test": "displacement of radiolabeled NRG-1β (5 ng/ml) from CHO cells expressing ErbB-4 by unlabeled ligand, 2 hours at 4 C", "from_the_text": "(§3) Each data point represents the mean and range (bars) of two determinations.\n(§4) To quantify the interaction, a ligand displacement analysis on ErbB-4-expressing CHO cells was undertaken."}, "[5]": {"target": "T4, ErbB-4 expressed on transfected cells …", "test": "displacement of radiolabeled NRG-1β (5 ng/ml) from CHO cells expressing ErbB-4 by unlabeled ligand; reference unlabeled NRG-1", "from_the_text": "as §3, §4"}}, "note": "Ends that are not written are not given here.", "data": [{"binder": "B1", "values": [{"measurement": "binding result", "setting": "[1]", "result": "no binding"}, {"measurement": "binding result", "setting": "[2]", "result": "no binding"}, {"measurement": "binding result", "setting": "[3]", "result": "no binding"}, {"measurement": "Kd", "setting": "[4]", "result": "~20", "unit": "nM"}, {"measurement": "fold lower binding affinity than NRG-1", "setting": "[5]", "result": "~8", "unit": "fold"}]}]}
